Experiment [1] deals with HLA-A*32:07. The experiment is described as follows: IEDB peptide-MHC binding, purified MHC/competitive/fluorescence; filed as Kd, often an IC50 or EC50 that approximates it; ≥ and ≤ were set here for values at or beyond the usual limits of such assays. The conditions noted are these: source organism: Rickettsia felis URRWXCal2.
The target of experiment [2] is HLA-A*32:15. The description is as above. The note with it: source organism: Rickettsia felis URRWXCal2.
In experiment [3] the target is HLA-B*15:02. Described as above. The note with it: source organism: Rickettsia felis URRWXCal2.
Experiment [4] addresses HLA-B*15:42. Described as above. The note with it: source organism: Rickettsia felis URRWXCal2.
In experiment [5] the target is HLA-B*27:20. The experiment is described as above. The note with it: source organism: Rickettsia felis URRWXCal2.
The target in experiment [6] is HLA-B*40:13. The description is as above. The conditions noted are these: source organism: Rickettsia felis URRWXCal2.
For experiment [7], the target named is HLA-B*45:06. Described as above. The conditions noted are these: source organism: Rickettsia felis URRWXCal2.
In experiment [8] the target is HLA-B*46:01. The experiment is described as above. The note with it: source organism: Rickettsia felis URRWXCal2.
Experiment [9] concerns the target HLA-B*83:01. The description is as above. The note with it: source organism: Rickettsia felis URRWXCal2.
Experiment [10] concerns the target HLA-C*06:02. Described as above. The note with it: source organism: Rickettsia felis URRWXCal2.
Experiment [11] concerns the target HLA-C*14:02. The experiment is described as above. The note with it: source organism: Rickettsia felis URRWXCal2.
The target in experiment [12] is HLA-A*24:02. In words: IEDB peptide-MHC binding, cellular MHC/competitive/fluorescence; ≥ and ≤ were set here for values at or beyond the usual limits of such assays. The conditions noted are these: source organism: Human herpesvirus 5 strain AD169.
The target in experiment [13] is HLA-A*01:01. In words: IEDB peptide-MHC binding, purified MHC/competitive/radioactivity; ≥ and ≤ were set here for values at or beyond the usual limits of such assays. The note with it: source organism: Human papillomavirus 16.
The target of experiment [14] is HLA-A*01:01. The experiment is described as follows: IEDB peptide-MHC binding, purified MHC/competitive/fluorescence; ≥ and ≤ were set here for values at or beyond the usual limits of such assays. The note with it: source organism: Homo sapiens.
Experiment [15] addresses HLA-A*02:01. Described as above. The conditions noted are these: source organism: Homo sapiens.
Experiment [16] has as its target HLA-A*03:01. Described as above. The conditions noted are these: source organism: Homo sapiens.
Experiment [17] has as its target HLA-A*11:01. The description is as above. The note with it: source organism: Homo sapiens.
Experiment [18] addresses HLA-A*24:02. The description is as above. The note with it: source organism: Homo sapiens.
Experiment [19] concerns the target HLA-A*25:01. The experiment is described as above. The conditions noted are these: source organism: Homo sapiens.
Experiment [20] addresses HLA-A*29:02. The description is as above. The conditions noted are these: source organism: Homo sapiens.
Experiment [21] has as its target HLA-A*31:01. The experiment is described as above. The note with it: source organism: Homo sapiens.
The target of experiment [22] is HLA-A*68:02. The experiment is described as above. The note with it: source organism: Homo sapiens.
In experiment [23] the target is HLA-B*07:02. The description is as above. The note with it: source organism: Homo sapiens.
Experiment [24] has as its target HLA-B*08:01. Described as above. The conditions noted are these: source organism: Homo sapiens.
Experiment [25] deals with HLA-B*14:02. The description is as above. The note with it: source organism: Homo sapiens.
Experiment [26] addresses HLA-B*18:01. Described as above. The conditions noted are these: source organism: Homo sapiens.
The target in experiment [27] is HLA-B*35:01. The experiment is described as above. The conditions noted are these: source organism: Homo sapiens.
The target of experiment [28] is HLA-B*37:01. The description is as above. The conditions noted are these: source organism: Homo sapiens.
Experiment [29] addresses HLA-B*40:02. Described as above. The note with it: source organism: Homo sapiens.
Experiment [30] addresses HLA-B*44:03. Described as above. The conditions noted are these: source organism: Homo sapiens.
Experiment [31] deals with HLA-B*51:01. The description is as above. The note with it: source organism: Homo sapiens.
Experiment [32] concerns the target HLA-B*53:01. The experiment is described as above. The note with it: source organism: Homo sapiens.
Experiment [33] concerns the target HLA-B*58:01. The description is as above. The conditions noted are these: source organism: Homo sapiens.
Experiment [34] addresses HLA-A*80:01. The experiment is described as follows: IEDB peptide-MHC binding, purified MHC/direct/fluorescence; filed as Kd, often an IC50 or EC50 that approximates it; ≥ and ≤ were set here for values at or beyond the usual limits of such assays. The note with it: source organism: Human immunodeficiency virus 1.
Experiment [35] deals with HLA-A*01:01. In words: IEDB peptide-MHC binding, purified MHC/competitive/fluorescence; filed as Kd, often an IC50 or EC50 that approximates it; ≥ and ≤ were set here for values at or beyond the usual limits of such assays. The note with it: source organism: Human immunodeficiency virus 1.
The target in experiment [36] is HLA-A*26:01. The experiment is described as above. The note with it: source organism: Human immunodeficiency virus 1.
Experiment [37] deals with HLA-A*30:01. The description is as above. The note with it: source organism: Human immunodeficiency virus 1.
Experiment [38] addresses HLA-B*08:01. The description is as above. The conditions noted are these: source organism: Human immunodeficiency virus 1.
Experiment [39] has as its target HLA-B*15:09. The description is as above. The conditions noted are these: source organism: Human immunodeficiency virus 1.
For experiment [40], the target named is HLA-B*15:17. Described as above. The conditions noted are these: source organism: Human immunodeficiency virus 1.
The target of experiment [41] is HLA-B*38:01. The experiment is described as above. The conditions noted are these: source organism: Human immunodeficiency virus 1.
The target of experiment [42] is HLA-B*57:01. The experiment is described as above. The note with it: source organism: Human immunodeficiency virus 1.
Experiment [43] concerns the target HLA-C*01:02. In words: IEDB peptide-MHC binding, purified MHC/direct/fluorescence; filed as Kd, often an IC50 or EC50 that approximates it; ≥ and ≤ were set here for values at or beyond the usual limits of such assays. The note with it: source organism: Homo sapiens.

Turning to FMYALSRAF, the Kd was 493 nM in [1]; 27.7 nM in experiment [2]; 2.2 nM in experiment [3]; at least 5000 nM in experiment [4]; at most 0.1 nM in experiment [5]; 4.5 nM in [6]. Further, the dissociation constant Kd in [7] is at least 5000 nM; in experiment [8], 6.6 nM; in experiment [9], at least 5000 nM; in experiment [10] it was 64.5 nM; in experiment [11], at most 0.1 nM.
For the sequence FFFDIDLLL, the IC50 in experiment [12] was at least 333000 nM.
As for QVDYYGLYY, the IC50 in [13] amounted to 18 nM.
On to LPSCPTNFCIF, for which the 50% inhibitory concentration (IC50) in [14] is at least 20000 nM; in experiment [15] it was at least 20000 nM; in experiment [16] it was at least 20000 nM; in experiment [17], at least 20000 nM; in [18] it was 1110 nM; in [19], at least 20000 nM. Further, the IC50 is at least 20000 nM in experiment [20]; at least 20000 nM in [21]; at least 20000 nM in experiment [22]; 562 nM in experiment [23]; at least 20000 nM in experiment [24]; at least 20000 nM in [25]. In addition, the IC50 is at least 20000 nM in [26]; 47.7 nM in experiment [27]; at least 20000 nM in [28]; at least 20000 nM in experiment [29]; at least 20000 nM in experiment [30]; at least 20000 nM in experiment [31]. The IC50 is 851 nM in [32] and at least 20000 nM in experiment [33].
In the case of GTEEIRSLF, the Kd in experiment [34] is at least 20000 nM; in [35], at least 20000 nM; in experiment [36], at least 20000 nM; in experiment [37], 11000 nM; in experiment [38] it was at least 20000 nM; in experiment [39] it was at least 20000 nM. Besides, the Kd in experiment [40] is 223 nM; in [41], at least 20000 nM; in experiment [42], 347 nM.
ELHDHGVSSL had a Kd in experiment [43] of 3.9 nM.

For the origin of these results see the Immune Epitope Database (IEDB).
